Laboratory results from patent US20210388087A1 (Chugai, published 2021).
Changes are numbered by the printed parent chain. In names and notes the source's numbering stands.

B1: H183/L072 VH K52bL (antibody, name in Kabat numbering, V domains shown)
VH: QVQLVESGGGLVQPGRSLRLSCAASGFTFSNAWMHWVRQAPGKGLEWVAQIKDLGNAYAAYYAPSVKGRFTISRDDSKNSIYLQMNSLKTEDTAVYYCHYVHYASASTVLPAFGVDAWGQGTTVTVSS
VL: DIVMTQSPLSLPVTPGEPASISCQASQELVHMNRNTYLHWYQQKPGQAPRLLIYKVSNRFPGVPDRFSGSGSGTDFTLKISRVEAEDVGVYYCAQGTSVPFTFGQGTKLEIK
B2: H183/L072 VH N31F (antibody, name in Kabat numbering, V domains shown)
VH: B1 VH with N31F, L54K
VL: B1 VL
B3: H183/L072 VH M34E (antibody, name in Kabat numbering, V domains shown)
VH: B1 VH with M34E, L54K
VL: B1 VL
B4: H183/L072 VH M34D (antibody, name in Kabat numbering, V domains shown)
VH: B1 VH with M34D, L54K
VL: B1 VL
B5: H183/L072 VH N31A (antibody, name in Kabat numbering, V domains shown)
VH: B1 VH with N31A, L54K
VL: B1 VL
B6: H183/L072 VH K64P (antibody, name in Kabat numbering, V domains shown)
VH: B1 VH with L54K, K67P
VL: B1 VL
B7: H183/L072 VH N31D (antibody, name in Kabat numbering, V domains shown)
VH: B1 VH with N31D, L54K
VL: B1 VL
B8: H183/L072 VH M34V (antibody, name in Kabat numbering, V domains shown)
VH: B1 VH with M34V, L54K
VL: B1 VL
B9: H183/L072 VH K52bV (antibody, name in Kabat numbering, V domains shown)
VH: B1 VH with L54V
VL: B1 VL
B10: H183/L072 VH K52bQ (antibody, name in Kabat numbering, V domains shown)
VH: B1 VH with L54Q
VL: B1 VL
B11: H183/L072 VH M34L (antibody, name in Kabat numbering, V domains shown)
VH: B1 VH with M34L, L54K
VL: B1 VL
B12: H183/L072 VH M34N (antibody, name in Kabat numbering, V domains shown)
VH: B1 VH with M34N, L54K
VL: B1 VL
B13: H183/L072 VH K64M (antibody, name in Kabat numbering, V domains shown)
VH: B1 VH with L54K, K67M
VL: B1 VL
B14: H183/L072 VH M34Q (antibody, name in Kabat numbering, V domains shown)
VH: B1 VH with M34Q, L54K
VL: B1 VL
B15: H183/L072 VH M34R (antibody, name in Kabat numbering, V domains shown)
VH: B1 VH with M34R, L54K
VL: B1 VL
B16: H183/L072 VH K52bN (antibody, name in Kabat numbering, V domains shown)
VH: B1 VH with L54N
VL: B1 VL
B17: H183/L072 VH M34S (antibody, name in Kabat numbering, V domains shown)
VH: B1 VH with M34S, L54K
VL: B1 VL
B18: H183/L072 VH K52bM (antibody, name in Kabat numbering, V domains shown)
VH: B1 VH with L54M
VL: B1 VL
B19: H183/L072 VH K64L (antibody, name in Kabat numbering, V domains shown)
VH: B1 VH with L54K, K67L
VL: B1 VL
B20: H183/L072 VH L100dM (antibody, name in Kabat numbering, V domains shown)
VH: B1 VH with L54K, L110M
VL: B1 VL
B21: H183/L072 VH M34W (antibody, name in Kabat numbering, V domains shown)
VH: B1 VH with M34W, L54K
VL: B1 VL
B22: H183/L072 VH M34A (antibody, name in Kabat numbering, V domains shown)
VH: B1 VH with M34A, L54K
VL: B1 VL
B23: H183/L072 VH K52bW (antibody, name in Kabat numbering, V domains shown)
VH: B1 VH with L54W
VL: B1 VL
B24: H183/L072 VH M34Y (antibody, name in Kabat numbering, V domains shown)
VH: B1 VH with M34Y, L54K
VL: B1 VL
B25: H183/L072 VH M34T (antibody, name in Kabat numbering, V domains shown)
VH: B1 VH with M34T, L54K
VL: B1 VL
B26: H183/L072 VH N31E (antibody, name in Kabat numbering, V domains shown)
VH: B1 VH with N31E, L54K
VL: B1 VL
B27: H183/L072 VH K52bT (antibody, name in Kabat numbering, V domains shown)
VH: B1 VH with L54T
VL: B1 VL
B28: H183/L072 VH K64I (antibody, name in Kabat numbering, V domains shown)
VH: B1 VH with L54K, K67I
VL: B1 VL
B29: H183/L072 VH L100dA (antibody, name in Kabat numbering, V domains shown)
VH: B1 VH with L54K, L110A
VL: B1 VL
B30: H183/L072 VH K52bR (antibody, name in Kabat numbering, V domains shown)
VH: B1 VH with L54R
VL: B1 VL
B31: H183/L072 VH M34P (antibody, name in Kabat numbering, V domains shown)
VH: B1 VH with M34P, L54K
VL: B1 VL
B32: H183/L072 VH L100dP (antibody, name in Kabat numbering, V domains shown)
VH: B1 VH with L54K, L110P
VL: B1 VL
B33: H183/L072 VH M34K (antibody, name in Kabat numbering, V domains shown)
VH: B1 VH with M34K, L54K
VL: B1 VL
B34: H183/L072 VH M34G (antibody, name in Kabat numbering, V domains shown)
VH: B1 VH with M34G, L54K
VL: B1 VL
B35: H183/L072 VH M34H (antibody, name in Kabat numbering, V domains shown)
VH: B1 VH with M34H, L54K
VL: B1 VL
B36: H183/L072 VH L100dI (antibody, name in Kabat numbering, V domains shown)
VH: B1 VH with L54K, L110I
VL: B1 VL
B37: H183/L072 VH M34I (antibody, name in Kabat numbering, V domains shown)
VH: B1 VH with M34I, L54K
VL: B1 VL
B38: H183/L072 VH K52bP (antibody, name in Kabat numbering, V domains shown)
VH: B1 VH with L54P
VL: B1 VL
B39: H183/L072 VH K52bY (antibody, name in Kabat numbering, V domains shown)
VH: B1 VH with L54Y
VL: B1 VL
B40: H183/L072 VH K64A (antibody, name in Kabat numbering, V domains shown)
VH: B1 VH with L54K, K67A
VL: B1 VL
B41: H183/L072 VH K52bS (antibody, name in Kabat numbering, V domains shown)
VH: B1 VH with L54S
VL: B1 VL
B42: H183/L072 VH M34F (antibody, name in Kabat numbering, V domains shown)
VH: B1 VH with M34F, L54K
VL: B1 VL

Biological target: T1, Human CD3eg linker (human)
T1 construct: Single chain: epsilon and gamma subunits of human CD3 joined by a 29-mer linker, Flag-tag at the C-terminus; also called recombinant human CD3
T1 chain: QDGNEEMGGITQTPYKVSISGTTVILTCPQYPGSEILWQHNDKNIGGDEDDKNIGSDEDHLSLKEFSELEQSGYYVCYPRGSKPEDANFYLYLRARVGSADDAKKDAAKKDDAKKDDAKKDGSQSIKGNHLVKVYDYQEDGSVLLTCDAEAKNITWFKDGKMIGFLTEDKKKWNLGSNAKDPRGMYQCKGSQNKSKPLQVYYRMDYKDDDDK
Experiment: Biacore SPR, vs template H183/L072

Compared with B1, B2 is lower in “fold change of affinity” value: 0.6 fold for the first, 0.5 fold for the second.

B3 and B4 are the same in “fold change of affinity” value: 0 fold for the first, 0 fold for the second.

Compared with B5, B6 is higher in “fold change of affinity” value: 0.4 fold for the first, 1.6 fold for the second.

B7 and B8 are the same in “fold change of affinity” value: 0.1 fold for the first, 0.1 fold for the second.

Compared with B9, B10 is higher in “fold change of affinity” value: 0.6 fold for the first, 0.7 fold for the second.

Compared with B11, B12 is lower in “fold change of affinity” value: 0.7 fold for the first, 0 fold for the second.

Going from B13 to B14, the “fold change of affinity” value falls from 1.1 fold to 0 fold.

First: B15
Second: B16
The “fold change of affinity” value of the first is lower: 0 fold for the first, 0.5 fold for the second.

Going from B17 to B18, the “fold change of affinity” value rises from 0 fold to 0.5 fold.

First: B19
Second: B20
The “fold change of affinity” value of the first is higher: 1.1 fold for the first, 1 fold for the second.

B21 and B22 are the same in “fold change of affinity” value: 0 fold for the first, 0 fold for the second.

First: B23
Second: B24
The “fold change of affinity” value of the first is higher: 0.6 fold for the first, 0 fold for the second.

B25 and B26 are the same in “fold change of affinity” value: 0 fold for the first, 0 fold for the second.

Compared with B27, B28 is higher in “fold change of affinity” value: 0.3 fold for the first, 1 fold for the second.

B29 and B30 are the same in “fold change of affinity” value: 1.2 fold for the first, 1.2 fold for the second.

Compared with B31, B32 is higher in “fold change of affinity” value: 0 fold for the first, 1.4 fold for the second.

B33 and B34 are the same in “fold change of affinity” value: 0 fold for the first, 0 fold for the second.

First: B35
Second: B36
The “fold change of affinity” value of the first is lower: 0 fold for the first, 1.2 fold for the second.

Going from B37 to B38, the “fold change of affinity” value falls from 0.6 fold to 0.5 fold.

Compared with B39, B40 is higher in “fold change of affinity” value: 0.7 fold for the first, 1 fold for the second.

First: B41
Second: B42
The “fold change of affinity” value of the first is higher: 0.7 fold for the first, 0.1 fold for the second.
